{"source": "paper PMC10790385", "about": "“Intracellular delivery of Parkin-RING0-based fragments corrects Parkin-induced mitochondrial dysfunction through interaction with SLP-2” (Journal of Translational Medicine, 2024)", "binders": {"B1": {"name": "recombinant human SLP-2 protein (aa 41-356) (domain or fragment, UniProt Q9UJZ1 41-356, looked up)", "chain": "VPQQEAWVVERMGRFHRILEPGLNILIPVLDRIRYVQSLKEIVINVPEQSAVTLDNVTLQIDGVLYLRIMDPYKASYGVEDPEYAVTQLAQTTMRSELGKLSLDKVFRERESLNASIVDAINQAADCWGIRCLRYEIKDIHVPPRVKESMQMQVEAERRKRATVLESEGTRESAINVAEGKKQAQILASEAEKAEQINQAAGEASAVLAKAKAKAEAIRILAAALTQHNGDAAASLTVAEQYVSAFSKLAKDSNTILLPSNPGDVTSMVAQAMGVYGALTKAPVPGTPDSLSSGSSRDVQGTDASLDEELDRVKMS", "notes": "Stomatin-like protein 2, human, aa 41-356; SUMO cleaved with ULP-1 protease; also called recombinant SLP-2; source: E. coli One Shot BL21(DE3)pLysS, purified (IMAC, nondenaturing)"}}, "key": {"[1]": {"biological_target": "T1, recombinant human Parkin fragment aa 138-465 (human, UniProt O60260 138-465)", "T1 construct": "SUMO cleaved with ULP-1 protease; source: E. coli One Shot BL21(DE3)pLysS, purified (IMAC, nondenaturing)", "T1 sequence (looked up)": "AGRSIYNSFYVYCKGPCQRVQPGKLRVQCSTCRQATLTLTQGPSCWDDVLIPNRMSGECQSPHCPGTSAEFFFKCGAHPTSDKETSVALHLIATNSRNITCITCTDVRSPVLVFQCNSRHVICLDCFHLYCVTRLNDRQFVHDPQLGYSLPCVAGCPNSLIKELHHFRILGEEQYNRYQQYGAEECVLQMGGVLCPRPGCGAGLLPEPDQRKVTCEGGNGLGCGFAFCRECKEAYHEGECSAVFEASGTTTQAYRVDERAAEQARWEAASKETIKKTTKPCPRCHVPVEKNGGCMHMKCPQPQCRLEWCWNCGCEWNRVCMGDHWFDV", "assay": "far-Western, overlay or dot blot; 2 µg recombinant Parkin proteins (aa 1-465 and aa 138-465) separated by SDS-PAGE and transferred to immobilon membrane, incubated for 6 h with 80 µg recombinant SLP-2, probed with anti-SLP-2 antibody", "details": "both partners purified"}, "[2]": {"biological_target": "T2, recombinant full-length human Parkin protein (aa 1-465) (human, UniProt O60260 1-465)", "T2 construct": "SUMO cleaved with ULP-1 protease; also called recombinant Parkin; source: E. coli One Shot BL21(DE3)pLysS, purified (IMAC, nondenaturing)", "assay": "far-Western, overlay or dot blot; 2 µg recombinant SLP-2 separated by SDS-PAGE and transferred to a membrane, incubated with 60 µg recombinant Parkin, probed with anti-Parkin antibody", "details": "both partners purified"}}, "data": [{"binder": "B1", "values": [{"measurement": "binding result", "setting": "[1]", "value": "binds"}, {"measurement": "binding result", "setting": "[2]", "value": "binds"}]}]}
